The text below walks through data of PMC12416549 (2024).

In the experiment the target is T1, TNFR1 (Homo sapiens, UniProt P19438).
T1 chain: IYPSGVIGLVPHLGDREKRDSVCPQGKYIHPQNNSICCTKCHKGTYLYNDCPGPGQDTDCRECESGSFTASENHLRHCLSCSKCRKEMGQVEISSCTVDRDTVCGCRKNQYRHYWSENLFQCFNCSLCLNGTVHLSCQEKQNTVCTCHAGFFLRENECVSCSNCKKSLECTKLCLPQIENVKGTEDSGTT
Put plainly: yeast display SC50.

B1: E58K (designed binder)
chain: MTLQELLREEALRRAEAEAFRYALELLAEKFPEQKEYLLDLAEEIESQIRSLSGVDVKDVRKFLDKEWAWVKELLAEHPAELAEVEAARAARLAELRAEVEAKVAA
Take B1: the “apparent Kd (screen)” value was determined as 490 pM.

B2: R61W (designed binder)
chain: MTLQELLREEALRRAEAEAFRYALELLAEKFPEQKEYLLDLAEEIESQIRSLSGVDVEDVWKFLDKEWAWVKELLAEHPAELAEVEAARAARLAELRAEVEAKVAA
As to B2, the “apparent Kd (screen)” value came to 3630 pM.

B3: E84V (designed binder)
chain: MTLQELLREEALRRAEAEAFRYALELLAEKFPEQKEYLLDLAEEIESQIRSLSGVDVEDVRKFLDKEWAWVKELLAEHPAELAVVEAARAARLAELRAEVEAKVAA
B3: the “apparent Kd (screen)” value turned out to be 490 pM.

B4: K62E (designed binder)
chain: MTLQELLREEALRRAEAEAFRYALELLAEKFPEQKEYLLDLAEEIESQIRSLSGVDVEDVREFLDKEWAWVKELLAEHPAELAEVEAARAARLAELRAEVEAKVAA
For the molecule B4, the “apparent Kd (screen)” value worked out at 790 pM.

B5: E84R (designed binder)
chain: MTLQELLREEALRRAEAEAFRYALELLAEKFPEQKEYLLDLAEEIESQIRSLSGVDVEDVRKFLDKEWAWVKELLAEHPAELARVEAARAARLAELRAEVEAKVAA
Regarding B5, the “apparent Kd (screen)” value is 790 pM.

B6: S51C (designed binder)
chain: MTLQELLREEALRRAEAEAFRYALELLAEKFPEQKEYLLDLAEEIESQIRCLSGVDVEDVRKFLDKEWAWVKELLAEHPAELAEVEAARAARLAELRAEVEAKVAA
For B6, the “apparent Kd (screen)” value was determined as 1050 pM.

B7: E43K (designed binder)
chain: MTLQELLREEALRRAEAEAFRYALELLAEKFPEQKEYLLDLAKEIESQIRSLSGVDVEDVRKFLDKEWAWVKELLAEHPAELAEVEAARAARLAELRAEVEAKVAA
As to B7, the “apparent Kd (screen)” value was determined as 790 pM.

B8: L24D (designed binder)
chain: MTLQELLREEALRRAEAEAFRYADELLAEKFPEQKEYLLDLAEEIESQIRSLSGVDVEDVRKFLDKEWAWVKELLAEHPAELAEVEAARAARLAELRAEVEAKVAA
Consider B8, for which the “apparent Kd (screen)” value was determined as 1860 pM.

B9: E101D (designed binder)
chain: MTLQELLREEALRRAEAEAFRYALELLAEKFPEQKEYLLDLAEEIESQIRSLSGVDVEDVRKFLDKEWAWVKELLAEHPAELAEVEAARAARLAELRAEVDAKVAA
Take B9: the “apparent Kd (screen)” value came to 490 pM.

B10: A106M (designed binder)
chain: MTLQELLREEALRRAEAEAFRYALELLAEKFPEQKEYLLDLAEEIESQIRSLSGVDVEDVRKFLDKEWAWVKELLAEHPAELAEVEAARAARLAELRAEVEAKVAM
For the molecule B10, the “apparent Kd (screen)” value is 718 pM.

B11: E16I (designed binder)
chain: MTLQELLREEALRRAIAEAFRYALELLAEKFPEQKEYLLDLAEEIESQIRSLSGVDVEDVRKFLDKEWAWVKELLAEHPAELAEVEAARAARLAELRAEVEAKVAA
Take B11: the “apparent Kd (screen)” value was 539 pM.

B12: R92F (designed binder)
chain: MTLQELLREEALRRAEAEAFRYALELLAEKFPEQKEYLLDLAEEIESQIRSLSGVDVEDVRKFLDKEWAWVKELLAEHPAELAEVEAARAAFLAELRAEVEAKVAA
Consider B12, for which the “apparent Kd (screen)” value was 490 pM.

B13: L75R (designed binder)
chain: MTLQELLREEALRRAEAEAFRYALELLAEKFPEQKEYLLDLAEEIESQIRSLSGVDVEDVRKFLDKEWAWVKELRAEHPAELAEVEAARAARLAELRAEVEAKVAA
Consider B13, for which the “apparent Kd (screen)” value turned out to be 653 pM.

B14: V71R (designed binder)
chain: MTLQELLREEALRRAEAEAFRYALELLAEKFPEQKEYLLDLAEEIESQIRSLSGVDVEDVRKFLDKEWAWRKELLAEHPAELAEVEAARAARLAELRAEVEAKVAA
As to B14, the “apparent Kd (screen)” value stood at 24400 pM.

B15: Y37A (designed binder)
chain: MTLQELLREEALRRAEAEAFRYALELLAEKFPEQKEALLDLAEEIESQIRSLSGVDVEDVRKFLDKEWAWVKELLAEHPAELAEVEAARAARLAELRAEVEAKVAA
In the case of B15, the “apparent Kd (screen)” value came out at 24400 pM.

B16: W68D (designed binder)
chain: MTLQELLREEALRRAEAEAFRYALELLAEKFPEQKEYLLDLAEEIESQIRSLSGVDVEDVRKFLDKEDAWVKELLAEHPAELAEVEAARAARLAELRAEVEAKVAA
With B16, the “apparent Kd (screen)” value came out at 12500 pM.

B17: A102T (designed binder)
chain: MTLQELLREEALRRAEAEAFRYALELLAEKFPEQKEYLLDLAEEIESQIRSLSGVDVEDVRKFLDKEWAWVKELLAEHPAELAEVEAARAARLAELRAEVETKVAA
Take B17: the “apparent Kd (screen)” value came to 790 pM.

B18: E95K (designed binder)
chain: MTLQELLREEALRRAEAEAFRYALELLAEKFPEQKEYLLDLAEEIESQIRSLSGVDVEDVRKFLDKEWAWVKELLAEHPAELAEVEAARAARLAKLRAEVEAKVAA
Take B18: the “apparent Kd (screen)” value came out at 539 pM.

B19: A76K (designed binder)
chain: MTLQELLREEALRRAEAEAFRYALELLAEKFPEQKEYLLDLAEEIESQIRSLSGVDVEDVRKFLDKEWAWVKELLKEHPAELAEVEAARAARLAELRAEVEAKVAA
On to B19, for which the “apparent Kd (screen)” value is 718 pM.

B20: E36D (designed binder)
chain: MTLQELLREEALRRAEAEAFRYALELLAEKFPEQKDYLLDLAEEIESQIRSLSGVDVEDVRKFLDKEWAWVKELLAEHPAELAEVEAARAARLAELRAEVEAKVAA
As for B20, the “apparent Kd (screen)” value came out at 490 pM.

B21: L38N (designed binder)
chain: MTLQELLREEALRRAEAEAFRYALELLAEKFPEQKEYNLDLAEEIESQIRSLSGVDVEDVRKFLDKEWAWVKELLAEHPAELAEVEAARAARLAELRAEVEAKVAA
Turning to B21, the “apparent Kd (screen)” value is 1860 pM.

B22: L39D (designed binder)
chain: MTLQELLREEALRRAEAEAFRYALELLAEKFPEQKEYLDDLAEEIESQIRSLSGVDVEDVRKFLDKEWAWVKELLAEHPAELAEVEAARAARLAELRAEVEAKVAA
As for B22, the “apparent Kd (screen)” value worked out at 8560 pM.

B23: V85R (designed binder)
chain: MTLQELLREEALRRAEAEAFRYALELLAEKFPEQKEYLLDLAEEIESQIRSLSGVDVEDVRKFLDKEWAWVKELLAEHPAELAEREAARAARLAELRAEVEAKVAA
Turning to B23, the “apparent Kd (screen)” value worked out at 13800 pM.

B24: E67M (designed binder)
chain: MTLQELLREEALRRAEAEAFRYALELLAEKFPEQKEYLLDLAEEIESQIRSLSGVDVEDVRKFLDKMWAWVKELLAEHPAELAEVEAARAARLAELRAEVEAKVAA
In the case of B24, the “apparent Kd (screen)” value is 1270 pM.

B25: E67F (designed binder)
chain: MTLQELLREEALRRAEAEAFRYALELLAEKFPEQKEYLLDLAEEIESQIRSLSGVDVEDVRKFLDKFWAWVKELLAEHPAELAEVEAARAARLAELRAEVEAKVAA
Consider B25, for which the “apparent Kd (screen)” value stood at 12500 pM.

B26: E99C (designed binder)
chain: MTLQELLREEALRRAEAEAFRYALELLAEKFPEQKEYLLDLAEEIESQIRSLSGVDVEDVRKFLDKEWAWVKELLAEHPAELAEVEAARAARLAELRACVEAKVAA
For B26, the “apparent Kd (screen)” value came to 653 pM.

B27: A90L (designed binder)
chain: MTLQELLREEALRRAEAEAFRYALELLAEKFPEQKEYLLDLAEEIESQIRSLSGVDVEDVRKFLDKEWAWVKELLAEHPAELAEVEAARLARLAELRAEVEAKVAA
For B27, the “apparent Kd (screen)” value came to 653 pM.

B28: V104I (designed binder)
chain: MTLQELLREEALRRAEAEAFRYALELLAEKFPEQKEYLLDLAEEIESQIRSLSGVDVEDVRKFLDKEWAWVKELLAEHPAELAEVEAARAARLAELRAEVEAKIAA
For the molecule B28, the “apparent Kd (screen)” value stood at 718 pM.

B29: V100Q (designed binder)
chain: MTLQELLREEALRRAEAEAFRYALELLAEKFPEQKEYLLDLAEEIESQIRSLSGVDVEDVRKFLDKEWAWVKELLAEHPAELAEVEAARAARLAELRAEQEAKVAA
In the case of B29, the “apparent Kd (screen)” value was found to be 718 pM.

B30: I45H (designed binder)
chain: MTLQELLREEALRRAEAEAFRYALELLAEKFPEQKEYLLDLAEEHESQIRSLSGVDVEDVRKFLDKEWAWVKELLAEHPAELAEVEAARAARLAELRAEVEAKVAA
Take B30: the “apparent Kd (screen)” value is 956 pM.

B31: A69W (designed binder)
chain: MTLQELLREEALRRAEAEAFRYALELLAEKFPEQKEYLLDLAEEIESQIRSLSGVDVEDVRKFLDKEWWWVKELLAEHPAELAEVEAARAARLAELRAEVEAKVAA
Regarding B31, the “apparent Kd (screen)” value was 539 pM.

B32: L52R (designed binder)
chain: MTLQELLREEALRRAEAEAFRYALELLAEKFPEQKEYLLDLAEEIESQIRSRSGVDVEDVRKFLDKEWAWVKELLAEHPAELAEVEAARAARLAELRAEVEAKVAA
Turning to B32, the “apparent Kd (screen)” value is 11400 pM.

B33: R61V (designed binder)
chain: MTLQELLREEALRRAEAEAFRYALELLAEKFPEQKEYLLDLAEEIESQIRSLSGVDVEDVVKFLDKEWAWVKELLAEHPAELAEVEAARAARLAELRAEVEAKVAA
Regarding B33, the “apparent Kd (screen)” value amounted to 593 pM.

B34: D65I (designed binder)
chain: MTLQELLREEALRRAEAEAFRYALELLAEKFPEQKEYLLDLAEEIESQIRSLSGVDVEDVRKFLIKEWAWVKELLAEHPAELAEVEAARAARLAELRAEVEAKVAA
With B34, the “apparent Kd (screen)” value came to 405 pM.
